Test results published in paper PMC9897197 (Brain, 2022).

Legend:
Brain uptake = conditions: ISCP, 13.5-month-old female non-Tg vs 3xTg-AD mice; unpaired t-test
INSRβ = INSRβ (Mus musculus, UniProt P15208); assay: Phosphorylation of INSRβ; assay type: in vivo; conditions: 6-month-old C57Bl6 mice
INSRβ, sequence (P15208 28-746 limits assumed): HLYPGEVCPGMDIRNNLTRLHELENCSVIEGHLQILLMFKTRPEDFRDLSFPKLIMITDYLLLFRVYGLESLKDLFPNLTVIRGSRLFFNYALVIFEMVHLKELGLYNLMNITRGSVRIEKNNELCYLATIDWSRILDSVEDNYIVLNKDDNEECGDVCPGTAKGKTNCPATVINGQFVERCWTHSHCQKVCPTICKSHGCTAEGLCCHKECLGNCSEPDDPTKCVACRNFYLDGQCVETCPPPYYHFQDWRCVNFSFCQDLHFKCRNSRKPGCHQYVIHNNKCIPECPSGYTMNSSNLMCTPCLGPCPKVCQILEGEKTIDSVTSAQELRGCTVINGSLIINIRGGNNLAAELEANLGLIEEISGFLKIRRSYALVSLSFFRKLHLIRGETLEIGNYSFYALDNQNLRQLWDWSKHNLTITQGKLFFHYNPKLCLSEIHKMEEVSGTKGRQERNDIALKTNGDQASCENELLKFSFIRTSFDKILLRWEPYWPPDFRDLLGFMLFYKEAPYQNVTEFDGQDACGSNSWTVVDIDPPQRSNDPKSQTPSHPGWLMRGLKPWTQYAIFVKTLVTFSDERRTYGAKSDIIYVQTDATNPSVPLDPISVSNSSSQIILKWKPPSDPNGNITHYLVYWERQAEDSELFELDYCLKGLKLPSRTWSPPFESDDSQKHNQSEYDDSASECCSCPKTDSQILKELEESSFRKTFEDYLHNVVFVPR
INSRβ, sequence (P15208 753-1372 limits assumed): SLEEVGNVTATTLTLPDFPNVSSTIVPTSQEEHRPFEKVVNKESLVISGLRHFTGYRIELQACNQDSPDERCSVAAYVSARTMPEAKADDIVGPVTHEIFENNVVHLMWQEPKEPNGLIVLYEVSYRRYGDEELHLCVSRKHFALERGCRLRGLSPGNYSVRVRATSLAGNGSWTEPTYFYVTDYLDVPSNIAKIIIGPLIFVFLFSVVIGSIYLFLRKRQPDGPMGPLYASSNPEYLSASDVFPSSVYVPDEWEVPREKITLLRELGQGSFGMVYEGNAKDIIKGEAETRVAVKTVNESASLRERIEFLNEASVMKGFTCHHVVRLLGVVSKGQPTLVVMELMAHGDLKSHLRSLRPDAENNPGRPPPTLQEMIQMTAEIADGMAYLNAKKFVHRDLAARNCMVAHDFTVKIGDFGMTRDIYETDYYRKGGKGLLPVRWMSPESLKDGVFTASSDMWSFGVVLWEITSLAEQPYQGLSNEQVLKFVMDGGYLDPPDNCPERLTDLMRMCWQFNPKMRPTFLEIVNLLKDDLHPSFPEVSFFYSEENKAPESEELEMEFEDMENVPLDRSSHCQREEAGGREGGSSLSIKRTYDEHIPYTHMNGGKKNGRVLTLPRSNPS

| phosphorylation of INSRβ in microvessel-depleted parenchymal fraction (INSRβ; ISCP 120 s, insulin 350 nM, western blot) | time to INSRβ phosphorylation after intracarotid administration (INSRβ; insulin 0.4 mg/kg or 350 nM, ISCP) [s] | Substance | impact of 3xTg-AD transgenes on 125I-insulin transport (Brain uptake) |
| --- | --- | --- | --- |
|  |  | 125I-insulin: radiolabelled insulin used for transport quantification | no significant impact |
| no trace was detected | ≤ 120 | insulin |  |
